Our source for the self-cleavage values is the RNAGym collection of RNA variant scans (doi:10.7554/elife.80360).

First the molecules themselves.
B1: HDV Ribozyme (parent)
chain: GGCCGGCAUGGUCCCAGCCUCCUCGCUGGCGCCGGCUGGGCAACAUUCCGAGGGGACCGUCCCCUCGGUAAUGGCGAAUGGGACCCA

This series covers variants of B1. Put plainly: self-cleavage, relative activity (ratio to wild type); higher = more cleavage; co-transcriptional.
Regarding GGCCGGCAUGGUCCCAGCCUCCUCGCUGGCGCCGGCUGGGCAAAAUUCCGAGGGGACCGUCCCCUCGGUAAUGGCGAAUGGGACCCU, the self-cleavage is 0.686. As to GACCGGCAUGGUCCCAGCCUCCUCGCUGGCGCCGGCUGGGCAACAUUCCGAGGGGACCGUCCCCUCGGUAAUGGUGAAUGGGACCCA, the self-cleavage amounted to 0.0715.

For the variant GGGCGGCAUGGUCCCAGCCUCCUCGUUGGCGCCGGCUGGGCAACAUUCCGAGGGGACCGUCCCCUCGGUAAUGGCGAAUGGGACCCA, the self-cleavage came out at 1.2. With GGCCGGCAUGGUCCCACCCUCCUCGCUGUCGCCGGCUGGGCAACAUUCCGAGGGGACCGUCCCCUCGGUAAUGGCGAAUGGGACCCA the figure was 0; with GGCCAGCAUGGUCCCAGCCUCCUCGCUGGCGCCGGCUGGGCAACAUUCCGAGGGGACCGUCCCCUCGGUAAUGGCGAAUGGGACACA, 0.113. With GGCCGGCAUGGUCCCAGCCUCCUCGCUGGCGGCGGCUGGGCACCAUUCCGAGGGGACCGUCCCCUCGGUAAUGGCGAAUGGGACCCA, the self-cleavage came out at 0.0536.

As for GGCCGGCAUGGUCCCAGCCUCCUCGCUGGCGCCGGCUGGGCAACAUUCCGAGGGGACCCUCCCCUCGGUAAUGGCUAAUGGGACCCA, the self-cleavage is 0.891. Regarding GGCCGGCAUGGUCCCAGCCUCCACGCUGGCGCCGGCUGGGCAACAUUCCGAGGGGACCGUCCCCUCGGUAAUGGCGACUGGGACCCA, the self-cleavage was 0.219. Regarding GUCCGGCAUGGUCCCAGCCUCCUCGCUGGCGCCGGCUGGGCAACAUUCCGAGGGGACCGUCUCCUCGGUAAUGGCGAAUGGGACCCA, the self-cleavage turned out to be 0.0314. With GGCCGGCAUGGACCCAGCCUCCUCGCUGGCGCCGGCUGGGCAACAUUCCGAGGGGACCGUCCACUCGGUAAUGGCGAAUGGGACCCA the figure was 0.519; with GGCCGGCAUGGUCCCAGCCUCCUCGCCGGCGCCGGCUGGGCAACAUUCCGAGGGGUCCGUCCCCUCGGUAAUGGCGAAUGGGACCCA, 0.674; with GGCCGGCAUGGUUCCAGCCUCCUCGCUGGCGCCGGCUGGGCAACAUUCCGAAGGGACCGUCCCCUCGGUAAUGGCGAAUGGGACCCA, 0.682. Consider GGCCGGCAUGGUCCCAGCCUCCUCGCUGGCGCCGGCUGGGCAGCAUUCCGAGGGGACCGUCCCCUCGGUAAUGGCGAAUGGGAACCA, for which the self-cleavage is 0.712. The value for GGCCGGCAUGAUCCCAGCCUCCUCGCUGGCGCCGGCUGGGCAACAUUCCGAGGGGACCGUCCCCUCGGUAAGGGCGAAUGGGACCCA was 0.0923; that for GGCCGGCAUGGUCCCAGCCUCCUCGCUGGCGCCGGCUGGGAAACAUUCCGAGGGGACCGUCCCCUCGGUAAUAGCGAAUGGGACCCA was 0.912.

With GGCCGGCGUGGUUCCAGCCUCCUCGCUGGCGCCGGCUGGGCAACAUUCCGAGGGGACCGUCCCCUCGGUAAUGGCGAAUGGGACCCA, the self-cleavage is 0. With GGCCGGCAUGGACCCAGCCUCCUCGCUGGCGCCGGCUGGGCAACAUUCCGAGGGAACCGUCCCCUCGGUAAUGGCGAAUGGGACCCA the figure was 0.415.

Regarding GGCCCGCAUGGUCCCAGCCUCCUCGCUGGCGCCGGCUGGGCAACAUUCCGAGGGGACCGUCACCUCGGUAAUGGCGAAUGGGACCCA, the self-cleavage amounted to 0.0665. With GGUCGGCAUGGUCCCAGCCUCCUCGCUGGCGCCGCCUGGGCAACAUUCCGAGGGGACCGUCCCCUCGGUAAUGGCGAAUGGGACCCA the figure was 0.49; with GGCCGGCAUGGUCCCAGCCUCCUCGCUGGCGCCGGCUGGGCAACAGUCCGAGGGGACCGUCCCCUCGGUAUUGGCGAAUGGGACCCA, 0.731; with GGCCAGCAUGGUCCCAGCCUCCUCGCUGGCGCCGGCUGGGCAACAUACCGAGGGGACCGUCCCCUCGGUAAUGGCGAAUGGGACCCA, 0.208. For the variant GGCCAGCAUGGUCCCAGCCUCCUCGCUGGCGCCGGCUGGGCAACAUUCCAAGGGGACCGUCCCCUCGGUAAUGGCGAAUGGGACCCA, the self-cleavage was 0.192. The value for GGCCGGCAUGGUCCCAGCCUCCUCGCUGGCGCCGGCUGGGCAACAAUCCGAGGGGACCGUCCCCUCGGUAAUGGCGAAUUGGACCCA was 0.176.

Consider GACCGGCAUGGGCCCAGCCUCCUCGCUGGCGCCGGCUGGGCAACAUUCCGAGGGGACCGUCCCCUCGGUAAUGGCGAAUGGGACCCA, for which the self-cleavage was found to be 0.0405. With GGCCGGCAUGGUCCCAGCCUCCUCGCUGGCUCCGGCUGGGCAACAUCCCGAGGGGACCGUCCCCUCGGUAAUGGCGAAUGGGACCCA, the self-cleavage amounted to 0.383. The value for GGCCGGCAUGGUCCCAGCCUCCUCGCUGGCGCCGGAUGGGCAACAUUCCGAGGGGACCGUCCCCUCGGUAAUGGCCAAUGGGACCCA was 0.241. With GGCCGCCAUGGUCCCAGCCUCCUCGCUGGCGCCGGCUGGGCAAGAUUCCGAGGGGACCGUCCCCUCGGUAAUGGCGAAUGGGACCCA the figure was 0.0692; with GGCCGGCAUGGUCCCAGCCUCCUCGCUGGCGCGGGCUGGGCAUCAUUCCGAGGGGACCGUCCCCUCGGUAAUGGCGAAUGGGACCCA, 0.175. As to GGCCGGCAUGGUCCCAGCCUCCUCGCUGGCGCCGGCUGGGCAACUUUCCGAGGGGACCGUCCCCUCGGUAAUGGCCAAUGGGACCCA, the self-cleavage was found to be 0.689. Consider GGCCGGCAUGGUCCCUGCCUCCUCGCUGGCGCCGGCUGGGCAACAUUCCGAGGGGACCGUCCCCUCGGUAAUGGCGAAUUGGACCCA, for which the self-cleavage worked out at 0.41. On to GGCCAGCAUGUUCCCAGCCUCCUCGCUGGCGCCGGCUGGGCAACAUUCCGAGGGGACCGUCCCCUCGGUAAUGGCGAAUGGGACCCA, for which the self-cleavage was 0.0665. GGCCGGCAUGGUCCCAGCCUCCUCGCUGGCGCCGUCUGGGCAACAUUCCGAGGGGACCGUCCCCUCGGUAAUGGCGCAUGGGACCCA: the self-cleavage is 0.0875.
